According to US20030229041A1:

Molecular target: bone morphogenetic protein 6 (UniProt P22004)
Assay: cell-based or functional assay

Sequence of UniProt P22004 (P22004 382-513 limits assumed): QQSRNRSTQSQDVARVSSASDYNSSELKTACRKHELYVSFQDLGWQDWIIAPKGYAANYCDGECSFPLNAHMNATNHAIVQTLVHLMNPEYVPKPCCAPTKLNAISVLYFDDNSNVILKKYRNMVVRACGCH

- BMP-6 stimulated alkaline phosphatase activity in mouse mesenchymal C3H10T1/2 cells (IC50): 0.3 µg/mL
Substance: mouse noggin (from UniProt P97466 28-232)
